Results reported in patent publication US20210102192A1 (TWIST BIOSCIENCE, published 2021).
Changes are numbered by the printed parent chain. One block for each binder: values may come before it.

What was measured:
[1] = molecular target: T1, Prostaglandin D2 receptor 2 (CRTH2R) (human, UniProt Q9Y5Y4 1-395); assay: cell-based or functional assay
T1 sequence: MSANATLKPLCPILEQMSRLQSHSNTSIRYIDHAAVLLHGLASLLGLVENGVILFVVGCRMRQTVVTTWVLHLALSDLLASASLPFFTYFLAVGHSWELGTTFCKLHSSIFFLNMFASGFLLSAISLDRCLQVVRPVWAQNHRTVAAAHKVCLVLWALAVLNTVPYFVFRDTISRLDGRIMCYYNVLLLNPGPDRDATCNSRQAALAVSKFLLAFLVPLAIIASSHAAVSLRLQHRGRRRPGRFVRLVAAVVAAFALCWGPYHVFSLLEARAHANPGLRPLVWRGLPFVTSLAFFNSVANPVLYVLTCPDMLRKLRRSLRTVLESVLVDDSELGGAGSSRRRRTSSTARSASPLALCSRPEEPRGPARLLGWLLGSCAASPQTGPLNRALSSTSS

[2] = molecular target: T2, Prostaglandin D2 receptor 2 (CRTH2R) (UniProt Q9Y5Y4 1-395); assay: FACS binding; CHO CRTH2R-positive cells
T2 chain: T1 sequence

[3] = molecular target: T2, Prostaglandin D2 receptor 2 (CRTH2R); assay: FACS binding; CHO CRTH2R-positive cells
[4] = molecular target: T2, Prostaglandin D2 receptor 2 (CRTH2R); assay: FACS binding; CHO CRTH2R-positive cells
[5] = molecular target: T2, Prostaglandin D2 receptor 2 (CRTH2R); assay: FACS binding; CHO CRTH2R-positive cells
[6] = molecular target: T2, Prostaglandin D2 receptor 2 (CRTH2R); assay: FACS binding; CRTH2R-positive cells

IC50 fold difference of the PGD2 dose response curve (cAMP assay, 100 nM IgG) [1]: > 2 fold
EC50 [2]: 19.6 nM
B1: CRTH2-50 (antibody, V domains shown)
VH: QVQLVQSGAEVKKPGSSVKVSCKASGGTFSSYALSWVRKAPGQGLEWMGGTIPIFGTVNYAQKFQGRVTITADESTSTAYMELSSLRSEDTAVYYCARANQHFTRVIGQPSPAVPSRGYIYHGYHYYGMDVWGQGTLVTVSS
VL: QSALTQPASVSGSPGQSITISCTGTSSDIGGYNFVSWYQQHPGKAPKLMIYDVSNRPQGVSNRFSGSKSGNTASLTISGLQAEDEADYYCSSYTSSNTYVVFGGGTKLTVL

EC50 [3]: 12.6 nM
B2: CRTH2 35 (antibody, V domains shown)
VH: QVQLVQSGAEVKKPGSSVKVSCKASGGTFRSYAISWVRQAPGQGLEWMGGIIPISGTTNYAQKFQGRVTITADESTSTAYMELSSLRSEDTAVYYCARANQHFTRIFGNYQIYFGHFGYHYYGMDVWGQGTLVTVSS
VL: B1 VL with N33E, D52G, N55R, Q58S, S91G, N97S, Y99P, V100Y

EC50 [4]: 3.95 nM
B3: CRTH2 66 (antibody)
chain 1: QVQLVESGGGVVQPGRSLRLSCAASGFDFSGYGMHWVRQAPGKGLEWVAVISYEGSNKFYADSVKGRFTISRDNSKNTLYLQMNSLRAEDTAVYYCARDLRELECEEWTIEVHGQEFAVHQDRGGVFSRGPCVDPRGVAGSFDVWGQGTLVTVSS
chain 2: EIVMTQSPATLSVSPGERATLSCRASQGVGSNLAWYQQKPGQAPRLLIYRTSIRATGIPARFSGSGSGTEFTLTISSLQSEDFAVYYCQQYYSWPPLTFGGGTKVEIK

EC50 [4]: 158 nM
B4: CRTH2 57 (antibody, V domains shown)
VH: QVQLVQSGAEVKKPGSSVKVSCKASGGTFSSYAMSWVRQAPGQGLEWMGGIIPLFGTTDYAQKFQGRVTITADESTSTAYMELSSLRSEDTAVYYCARANQHFVKIQGAPVSTPVPGFGTTGYHYYGMDVWGQGTLVTVSS
VL: QSVLTQPPSVSAAPGQKVTISCSGSSSNIEDNYVSWYQQLPGTAPKLLIYDNFKRPSGIPDRFSGSKSGTSATLGITGLQTGDEADYYCGTWDTSLSAALFGGGTKLTVL

antagonist activity in PGD2-induced cAMP assay at 33 nM IgG [1]: > 20%
EC50 [2]: 73.8 nM
B5: CRTH2-15 (antibody, V domains shown)
VH: QVQLVQSGAEVKKPGSSVKVSCKASGGTFSTYAIDWVRQAPGQGLEWMGGIIPLFGSPNYAQKFQGRVTITADESTSTAYMELSSLRSEDTAVYYCARANQHFFLYEGTSSSWLHVGHARYGYHYYGMDVWGQGTLVTVSS
VL: B4 VL with S26G, E30G, D31S, F53I, K54R, G90A, T91A, S95R, A99G, L100V

antagonist activity in PGD2-induced cAMP assay at 33 nM IgG [1]: > 20%
B6: CRTH2-8 (antibody, V domains shown)
VH: QVQLVQSGAEVKKPGSSVKVSCKASGGTFTDYAISWVRQAPGQGLEWMGGIIPFFGSPNYAQKFQGRVTITADESTSTAYMELSSLRSEDTAVYYCARDMYYDFAAGLEGTITEVFDEEGHQGGTEVVPADDAFDIWGQGTLVTVSS
VL: B4 VL with E30G, D31K, F53N, K54Q, S97T, A98S, A99V, L100V

antagonist activity in PGD2-induced cAMP assay at 33 nM IgG [1]: > 20%
EC50 [5]: 8.61 nM
B7: CRTH2-74 (antibody)
VH: QVQLVESGGGVVQPGRSLRLSCAASGFSFSEYGIHWVRQAPGKGLEWVAVISYEGSNEYYADSVKGRFTISRDNSKNTLYLQMNSLRAEDTAVYYCARANQHFGPVAGGATPSEEPGSQLTRAELGWDAPPGQESLADELLQLGTEHGYHYYGMDVWGQGTLVTVSS
VL: QSVLTQPPSVSAAPGQKVTISCSGSTSNIGKNYVSWYQQLPGTAPKLLIYDDDERPSGIPDRFSGSMSGTSATLGITGLQTGDEADYYCEAWDADLSGAVFGGGTKLTVL

IC50 fold difference of the PGD2 dose response curve (cAMP assay, 100 nM IgG) [1]: > 2 fold
EC50 [3]: 12.4 nM
B8: CRTH2-32 (antibody, V domains shown)
VH: QVQLVESGGGVVQPGRSLRLSCAASGFTFSKHGMHWVRQAPGKGLEWVAFISYEGSEKYYADSVKGRFTISRDNSKNTLYLQMNSLRAEDTAVYYCARDMYYDFHYSTVGATYYYYLGSETEVVPADDAFDIWGQGTLVTVSS
VL: QSALTQPASVSGSPGQSITISCTGTSSGVGGYDYVSWYQQHPGKAPKLMIYDDNNRPSGVSNRFSGSKSGNTASLTISGLQAEDEADYYCSSYTGSSTLYVFGGGTKLTVL

antagonist activity in PGD2-induced cAMP assay at 33 nM IgG [1]: > 20%
EC50 [3]: 23.2 nM
B9: CRTH2-45 (antibody)
VH: QVQLVESGGGVVQPGRSLRLSCAASGFTFSHYAMHWVRQAPGKGLEWVADISHEGSNKYYADSVKGRFTISRDNSKNTLYLQMNSLRAEDTAVYYCARDGRGSLPRPKGGPTSGGGFSTNIGYGFVVQSYDSSEDSGGAFDIWGQGTLVTVSS
VL: QSVLTQPPSVSAAPGQKVTISCSGTSSNIENNYVSWYQQLPGTAPKLLIYDNVKRPSGIPDRFSGSKSGTSATLGITGLQTGDEADYYCGTWDNTVSAPWVFGGGTKLTVL

EC50 [6]: 0.181 nM
B10: CRTH2-41-51 (Fc fusion)
chain: EVQLVESGGGLVQPGGSLRLSCAASGGIFRFNAMGWFRQAPGKERELVAGISGSGGDTYYADSVKGRFTISADNSKNTAYLQMNSLKPEDTAVYYCAAFRGIMRPDWGQGTLVTVSS

antagonist activity in PGD2-induced cAMP assay at 33 nM IgG [1]: > 20%
EC50 [5]: 16.7 nM
B11: CRTH2-19 (antibody, V domains shown)
VH: QVQLVQSGAEVKKPGSSVKVSCKASGGTFSSHAINWVRQAPGQGLEWMGRIIPIVGTTTYAQKFQGRVTITADESTSTAYMELSSLRSEDTAVYYCARDMYYDFDYFGLTLTGDRNDDEVVPADDAFDIWGQGTLVTVSS
VL: QSALTQPASVSGSPGQSITISCTGTSSDVGGYDYVTWYQQHPGKAPKLMIYDVDTRPSGVSNRFSGSKSGNTASLTISGLQAEDEADYYCSSYTTSTSYVFGGGTKLTVL
